Experiments:
[1] = cited from earlier work
OVA-specific IgE = experiment: Serum OVA-specific IgE by sandwich ELISA, OVA sensitization and aerosol challenge mouse model; format: in vivo; settings: mean±SEM
Protocol: (§1) Female BALB/c mice (6-10 weeks of age) were purchased from Charles River, Wilmington, Mass., and housed five mice per cage in a 12/12 h light/dark cycle with food and water available ad libitum. All experimental procedures were approved by the institutional animal ethics committee (IAUCUC) at the Institute of Biosciences and Technology, Texas A&M HSC.
(§2) Synthetic TLR ligands (referred to as O/P) were purchased from InvivoGen (San Diego, Calif.), reconstituted in endotoxin-free water, and suspended in 8 ml sterile PBS at the following concentrations: Pam2 10 μg/ml; ODN2395 20 μg/ml. Mice were sensitized to ovalbumin (OVA) ([…], Grade V, 2.25 mg alum in saline, pH7.4; Sigma, St. Louis, Mo.) administered by intraperitoneal (IP) injection once weekly for one or two weeks. Sensitized mice were exposed for 30 min to an aerosol of 2.5% (wt/vol) ovalbumin in 0.9% saline, via Aerotech II nebulizer (CIS US, Inc.) combined with or without O/P in the presence of room air supplemented with 5% CO2 to promote maximal ventilation and homogeneous aerosol exposure throughout the lungs.
(§3) Serum immunoglobulin concentrations were determined by standard sandwich ELISA technique using 96 well Easywash high binding flat bottom plates (Corning). […] Reactions were stopped by addition of 2N H2SO4 and absorbance read at 450 nm. All readings used in the data fell within the linear portion of the standard curves. […]

IgG1 = experiment: Serum total IgG1 by sandwich ELISA, OVA model; format: in vivo, mouse; settings: FIG. 2; aerosol 6×, Groups 4 and 6; mean±SEM
Protocol: as §1, §2, §3

total IgE = experiment: Serum total IgE by sandwich ELISA, OVA sensitization and aerosol challenge mouse model; format: in vivo; design: unit not given here; settings: mean±SEM
Protocol: as §1, §2
Serum immunoglobulin concentrations were determined by standard sandwich ELISA technique using 96 well Easywash high binding flat bottom plates (Corning). All reagents were diluted in assay diluent (TBS+0.1% BSA [Calbiochem]) except for the coating reagent, which was diluted in TBS only. All wells were washed with wash buffer (TBS+0.1% Tween-20) 3×s, 5 minutes per wash, and all samples developed by adding TMB Substrate Reagent (BD Biosciences) for 30 minutes in the dark. Reactions were stopped by addition of 2N H2SO4 and absorbance read at 450 nm. All readings used in the data fell within the linear portion of the standard curves.
The same protocol was followed for determining total IgE using the following amounts of reagents: 2 μg/mL goat anti-mouse IgE (AbD Serotec, STAR166), 2 μg/mL Biotin Rat Anti-Mouse IgE (BD Biosciences, clone R35-118). For OVA IgG1, the following amounts of reagents were used: 100 μg/mL OVA (Sigma) and 0.1 μg/mL Biotin Rat Anti-Mouse IgG1 (eBioscience, clone M1-14D12). For total IgG1: 2 μg/mL Rat Anti-Mouse IgG1 (BioLegend, clone RMG1-1), 0.05 μg/mL Biotin Rat Anti-Mouse IgG1 (eBioscience, clone M1-14D12). For IgG2a: 2 μg/mL Rat Anti-Mouse IgG2a (BioLegend, clone RMG2a-62) and 0.05 μg/mL Biotin Goat Anti-Mouse IgG2a (AbD Serotec, 108008). For total IgG: 2 μg/mL Goat Anti-Mouse IgG (AbD Serotec, 103001) and 0.025 μg/mL Biotin Sheep Anti-Mouse IgG (AbD Serotec, AAC10B).

eosinophils (EOS) in BAL = experiment: BAL total and differential cell counts (Wright-Giemsa), OVA model; format: in vivo, mouse; settings: FIG. 3B; sensitization optimization, Group 8: two IP OVA/alum, aerosol two times/week
Protocol: as §2
BAL was obtained by instilling and withdrawing two, 1 ml aliquots of PBS via trachea cannula (luer stub adapter, BD Biosciences). Total leukocyte count was determined with a hemocytometer (Houser Scientific, Horsham, Pa.), and slides for differential cell count were prepared by cytospin of 300 μl of BAL fluid at 500×g for 5 min, followed by Wright-Giemsa staining.

IgG2a = experiment: Serum IgG2a by sandwich ELISA, OVA model; format: in vivo, mouse; settings: FIG. 2; aerosol 6×, Group 6; mean±SEM
Protocol: as §1, §2, §3

Molecule | solubility in dimethyl sulfoxide and dimethylformamide ([1]; dimethyl sulfoxide, dimethylformamide) | solubility in methanol and 95% ethanol ([1]; methanol, 95% ethanol) | solubility in water ([1]; water) | OVA-specific IgE (OVA-specific IgE; FIG. 1C, serum, day 21, aerosol 6×, Groups 4 and 6) | OVA-IgE (OVA-specific IgE; FIG. 6 second panel, aerosol schedule of FIG. 5A, Groups 2 and 3) | IgG1 levels (IgG1) | total IgE (total IgE; FIG. 1B, serum, day 21, aerosol 6× (three times/week for 2 weeks from second immunization), Groups 4 and 6) | total IgE (total IgE; FIG. 4, sensitization optimization, Group 5: one IP OVA/alum, OVA aerosol two times/week) | total IgE (total IgE; FIG. 4, sensitization optimization, Group 8: two IP OVA/alum, OVA aerosol two times/week) | total IgE (total IgE; FIG. 6 top panel, two OVA immunizations, aerosol schedule of FIG. 5A, Groups 2 and 3) | eosinophils (EOS) in BAL (eosinophils (EOS) in BAL) | IgG2a levels (IgG2a)
CCC(=O)O[C@]1(C(=O)SCF)[C@H](C)C[C@H]2[C@@H]3C[C@H](F)C4=CC(=O)C=C[C@]4(C)[C@@]3(F)[C@@H](O)C[C@@]21C [Fluticasone propionate, S-(fluromethyl)6α,9-difluoro-11β-17-dihydroxy-16α-methyl-3-oxoandrosta-1,4-diene-17β-carbothioate,17-propionate] | freely soluble | slightly soluble | practically insoluble | – | – | – | – | – | – | – | – | –
ovalbumin (protein, UniProt P01012 2-386, looked up, model antigen/allergen, Grade V, Sigma) Ovalbumin: GSIGAASMEFCFDVFKELKVHHANENIFYCPIAIMSALAMVYLGAKDSTRTQINKVVRFDKLPGFGDSIEAQCGTSVNVHSSLRDILNQITKPNDVYSFSLASRLYAEERYPILPEYLQCVKELYRGGLEPINFQTAADQARELINSWVESQTNGIIRNVLQPSSVDSQTAMVLVNAIVFKGLWEKAFKDEDTQAMPFRVTEQESKPVQMMYQIGLFRVASMASEKMKILELPFASGTMSMLVLLPDEVSGLEQLESIINFEKLTEWTSSNVMEERKIKVYLPRMKMEEKYNLTSVLMAMGITDVFSSSANLSGISSAESLKISQAVHAAHAEINEAGREVVGSAEAGVDAASVSEEFRADHPFLFCIKHIATNAVLFFGRCVSP | – | – | – | 4.36±0.82 | 3.77±1.00 | 6.01±0.66 | 17.23±1.82 | 5.36±1.70 | 11.05±2.39 | 24.66±8.23 | elevated compared to all other groups | 25±3
